{"source": "patent US20210063414A1", "about": "“METHODS FOR PREVENTING AND/OR TREATING BONE LOSS CONDITIONS BY MODULATING IRISIN” (Dana-Farber Cancer Institute, Inc., priority 2018, published 2021)", "test_in_all_cases": "Crosslinking/co-immunoprecipitation/mass spectrometry (TMT quantitative proteomics) to identify irisin receptors", "assay_type_in_all_cases": "binding", "key": {"[1]": {"molecular_target": "T1, MLO-Y4 cell surface proteins (Mus musculus, UniProt Q8BJQ9)", "T1 construct": "endogenous in cells; host or cells: MLO-Y4", "T1 sequence (Q8BJQ9 1-530)": "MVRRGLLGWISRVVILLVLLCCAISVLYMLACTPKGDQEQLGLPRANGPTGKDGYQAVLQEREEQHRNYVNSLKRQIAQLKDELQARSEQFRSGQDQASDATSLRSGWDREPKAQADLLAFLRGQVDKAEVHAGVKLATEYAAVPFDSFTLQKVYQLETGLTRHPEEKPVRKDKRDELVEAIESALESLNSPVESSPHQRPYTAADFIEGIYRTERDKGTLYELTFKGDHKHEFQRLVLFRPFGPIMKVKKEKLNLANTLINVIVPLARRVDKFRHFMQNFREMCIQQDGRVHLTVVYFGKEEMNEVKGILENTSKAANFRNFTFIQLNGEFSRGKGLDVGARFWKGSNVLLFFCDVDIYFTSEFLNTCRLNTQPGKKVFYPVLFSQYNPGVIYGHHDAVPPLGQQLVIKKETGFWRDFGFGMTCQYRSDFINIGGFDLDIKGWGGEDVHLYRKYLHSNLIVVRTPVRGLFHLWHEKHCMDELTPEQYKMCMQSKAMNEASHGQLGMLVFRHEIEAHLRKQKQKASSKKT", "settings": "co-precipitated protein Csgalnact1 (CGAT1_MOUSE)", "procedure": "(§1) MLO-Y4 cells were seeded on 30×150 mm type-I collagen coated dishes as described in cell culture experiment. At 60% cell density, medium was switched to FreeStyle™ 293 Expression medium. After 4 hours incubation, the cells were chilled on ice for 10 minutes, followed by treatment of 10 nM his-tag irisin or his-tag adipsin for 20 minutes. The cells were then incubated with 1.5 mM DTSSP for 30 minutes on ice to do cross-linking, after washing with 15 ml cold PBS twice. The cross-linking was quenched by addition of a final concentration of 20 mM Tris-pH 7.5. The cells were then harvested and homogenized in 1 ml RIPA buffer containing proteaseinhibitor cocktailand phosphatase-inhibitor cocktail. Whole-cell lysates were homogenized by 10 times passages through a 22G needle fitted to a 3 ml syringe. Homogenized samples were rotated gently in cold room for 20 minutes followed by 15,000×g centrifugation for 10 minutes. After addition of a final concentration of 10 mM imidazole, supernatants were incubated with 100 μl Ni-NTA agarose for 1 hour. After centrifugation at 500×g for 1 minute, the supernatants were aspirated and 1 ml cold RIPA buffer containing 10 mM imidazole were added to the agarose. After 10 minutes rotation in cold room, the supernatants were aspirated and 1 ml cold RIPA buffer containing 30 mM imidazole were added to the agarose. After repeating the washing 3 times, 0.8 ml RIPA buffer containing 250 mM imidazole was added and the agarose was gently rotated in a cold room for 20 minutes. After centrifugation at 1000×g for 2 minutes, the supernatants were transferred to 1.5 ml tube and incubated with 100 μl 0.2% sodium deoxycholate and 100 μl 10% trichloroacetic acid in ice for 1 hour. After centrifugation at 12,000×g for 10 minutes at 4° C., the supernatants were removed and 1 ml cold acetone was added to the pellets followed by vortexing for 10 seconds. After one more washing with cold acetone, the pellets were dried at 37° C., and 39 μl PBS and 13 μl 4×NuPAGE LDS were added to the pellets with a final concentration of 5 mM DTT. Solubilized proteins were incubated at 65° C. for 20 minutes followed by incubation with a final concentration of 14 mM iodoacetamide for 45 minutes in the dark. 38 μl samples were loaded to 4-12% gradient SDS-PAGE for separation followed by Coomassie Blue staining. The gels were submitted to quantitative proteomics.\n(§2) For in-gel digestions, gels were stained with Coomassie Blue and were excised into 8 equal segments for control and irisin lanes. Gel pieces were destained and dehydrated with 100% acetonitrile, vacuumed dried, and digested in 25 mM HEPES (pH 8.5) with 500 ng sequencing grade trypsin (Promega) and incubated for an overnight at 37° C. (Shevchenko et al. (1996) Anal. Chem. 68:850-858). Digests were treated with 1% formic acid and purified using C18 Stage-Tips as previously described (Rappsilber et al. (2007) Nat. Protoc. 2:1896-1906). Peptides were eluted with 70% acetonitrile and 1% formic acid, then dried using a speedvac. Isobaric labeling of digested peptides was accomplished using 6-plex tandem mass tag (TMT) reagents (Thermo Fisher Scientific, Rockford, Ill.). Reagents, 5.0 mg, were dissolved in 252 μl acetonitrile (ACN) and 5 μl of the solution was added to the digested peptides dissolved in 25 μl of 200 mM HEPES, pH 8.5. After 1 hour at room temperature, the reaction was quenched by adding 1 μl of 5% hydroxylamine. Labeled peptides were combined and acidified prior to C18 Stage-Tips desalting.\n(§3) All LC-MS/MS experiments were performed on an Orbitrap Fusion™ Lumos mass spectrometer (Thermo Fisher Scientific, San Jose, Calif., USA) coupled with a Proxeon EASY-nLC™ 1200 LC pump (Thermo Fisher Scientific). Peptides were separated on a 100 μm inner diameter microcapillary column packed with 35 cm of Accucore™ C18 resin (1.8 μm, 100 Å, Thermo Fisher Scientific). […]"}, "[2]": {"molecular_target": "T2, MLO-Y4 cell surface proteins (Mus musculus, UniProt P63038)", "T2 construct": "endogenous in cells; host or cells: MLO-Y4", "T2 sequence (P63038 27-573)": "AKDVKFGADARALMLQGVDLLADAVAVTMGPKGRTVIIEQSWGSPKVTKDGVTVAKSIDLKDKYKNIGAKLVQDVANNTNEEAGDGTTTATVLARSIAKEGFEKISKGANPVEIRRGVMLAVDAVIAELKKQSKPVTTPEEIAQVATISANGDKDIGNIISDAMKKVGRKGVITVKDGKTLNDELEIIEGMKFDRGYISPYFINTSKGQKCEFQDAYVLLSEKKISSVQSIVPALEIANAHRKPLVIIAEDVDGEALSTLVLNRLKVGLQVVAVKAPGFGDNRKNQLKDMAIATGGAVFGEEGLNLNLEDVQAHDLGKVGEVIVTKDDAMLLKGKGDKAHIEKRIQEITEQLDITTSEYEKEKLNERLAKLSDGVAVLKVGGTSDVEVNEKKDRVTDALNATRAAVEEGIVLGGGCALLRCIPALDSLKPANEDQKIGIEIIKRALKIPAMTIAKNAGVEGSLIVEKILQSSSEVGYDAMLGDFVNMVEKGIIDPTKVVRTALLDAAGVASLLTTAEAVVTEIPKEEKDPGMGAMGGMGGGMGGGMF", "settings": "co-precipitated protein Hspd1 (CH60_MOUSE)", "procedure": "as §1, §2, §3"}, "[3]": {"molecular_target": "T3, MLO-Y4 cell surface proteins (Mus musculus, UniProt Q08189)", "T3 construct": "endogenous in cells; host or cells: MLO-Y4", "T3 sequence (Q08189 1-693)": "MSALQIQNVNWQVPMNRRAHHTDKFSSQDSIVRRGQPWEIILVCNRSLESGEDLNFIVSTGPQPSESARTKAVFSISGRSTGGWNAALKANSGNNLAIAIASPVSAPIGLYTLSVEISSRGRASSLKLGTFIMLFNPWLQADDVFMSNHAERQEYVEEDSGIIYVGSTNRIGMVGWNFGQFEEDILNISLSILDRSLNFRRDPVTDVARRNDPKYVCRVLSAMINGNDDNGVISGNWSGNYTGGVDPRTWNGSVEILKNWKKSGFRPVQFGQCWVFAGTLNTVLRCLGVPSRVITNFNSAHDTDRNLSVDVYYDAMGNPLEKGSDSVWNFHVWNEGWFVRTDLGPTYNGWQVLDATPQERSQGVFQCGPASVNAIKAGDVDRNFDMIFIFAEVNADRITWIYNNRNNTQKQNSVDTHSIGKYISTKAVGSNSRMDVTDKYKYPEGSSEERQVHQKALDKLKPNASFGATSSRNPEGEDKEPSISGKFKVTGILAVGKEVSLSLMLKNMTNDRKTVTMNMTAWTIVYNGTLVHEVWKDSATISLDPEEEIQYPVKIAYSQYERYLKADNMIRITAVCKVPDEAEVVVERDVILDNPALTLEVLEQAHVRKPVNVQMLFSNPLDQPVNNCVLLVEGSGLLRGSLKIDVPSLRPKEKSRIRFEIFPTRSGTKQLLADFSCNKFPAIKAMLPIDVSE", "settings": "co-precipitated protein Tgm3 (TGM3_MOUSE)", "procedure": "as §1, §2, §3"}}, "data": [{"substance": "adipsin", "values": [{"measurement": "TMT signal-to-noise ratio", "setting": "[1]", "value": 2426.62}, {"measurement": "TMT signal-to-noise ratio", "setting": "[2]", "value": 4263.9}, {"measurement": "TMT signal-to-noise ratio", "setting": "[3]", "value": 274.388}]}]}
